This passage reports IC50 results from patent US6998239.

In the assay the target is T1, human CCX CKR with N-terminal Flag epitope, stably expressed on HEK293 cells, Q9NPB9.
T1 chain: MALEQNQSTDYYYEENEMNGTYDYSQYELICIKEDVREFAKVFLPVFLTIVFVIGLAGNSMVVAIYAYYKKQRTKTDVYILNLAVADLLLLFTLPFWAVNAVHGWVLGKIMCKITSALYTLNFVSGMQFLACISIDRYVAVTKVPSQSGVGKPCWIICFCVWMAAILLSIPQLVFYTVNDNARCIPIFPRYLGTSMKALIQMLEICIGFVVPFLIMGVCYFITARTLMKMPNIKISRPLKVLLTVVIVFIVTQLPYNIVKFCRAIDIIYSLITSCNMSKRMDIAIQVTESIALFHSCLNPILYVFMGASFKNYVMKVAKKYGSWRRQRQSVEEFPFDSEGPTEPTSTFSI
Description: 125I-ELC competition binding. To be noted: ligand; chains chain; remark: other sources report otherwise.

One may read the IC50 as the midpoint of a concentration-inhibition curve. High values mean a need for much substance, low ones inhibition by little substance.

B1: BLC (B-lymphocyte chemoattractant), O43927 23-109 (protein)
chain: VLEVYYTSLRCRCVQESSVFIPRRFIDRIQILPRGNGCPRKEIIVWKKNKSIVCVDPQAEWIQRMMEVLRKRSSSTLPVPVFKRKIP
B1: the IC50 turned out to be 140 nM.
